Measurements taken from patent US20230227838A1, “ENHANCED CELL SURVIVAL AGAINST BIOTIC AND ABIOTIC STRESSES THROUGH SALICYLICK ACID-INDUCED NPR1 CONDENSATES” (priority 2020, published 2023).

Assays:
[1] = tested on: Psm ES4326/AvrRpt2-mediated cell death; assay: Cell death (conductivity/electrolyte leakage, trypan blue) after Psm ES4326/AvrRpt2 inoculation; type: in vivo, Arabidopsis thaliana; settings: transgenic plants expressing the mutant in npr1-2 background; 1 mM SA 24 hr before inoculation
Protocol: Chemical treatment, pathogen infection and cell death assays. […] At 2 days, the bacterial colonies were scored.
Trypan blue staining. Leaves of three-week-old Arabidopsis infected with Psm ES4326/AvrRpt2 were sampled at 1 dpi, boiled in 95% ethanol until completely bleached, followed by boiling for 3 min in a 1:1 mixture of 95% ethanol and staining solution (10 ml lactic acid, 10 ml glycerol, 10 g phenol and 10 mg trypan blue, dissolved in 10 ml DDW). The leaves were then de-stained in 2.5 g/ml chloral hydrate solution and transferred to 70% glycerol for subsequent imaging.

[2] = tested on: cytoplasmic condensates (SINCs); assay: Confocal imaging of localization and condensate (body) formation of GFP-fused NPR proteins and variants; type: cell-based, Nicotiana benthamiana
Protocol: (§1) Plant transformation: For plant transformations, the Agrobacterium tumefaciens strain GV3101 was transformed with plant binary vectors carrying the indicated transgenes. For stable expression in Arabidopsis, a floral dipping method was used. For transient expression in N benthamiana, the Agrobacterium carrying the indicated construct was cultured overnight at 28° C. in Luria-Bertani (LB) broth medium supplemented with appropriate antibiotics: spectinomycin (100 μg/ml), kanamycin (50 μg/ml), gentamycin (50 μg/ml), and rifampicin (25 μg/ml). The obtained culture was re-inoculated at 1:10 into fresh growth media with antibiotics and grown for another 4 hr. Cells were then spun down at 1,600 g for 10 min, and inoculum was prepared by resuspending cells to OD600 nm=1 in double distilled water (DDW) containing 200 μM acetosyringone (Sigma). Unless otherwise stated, for co-IP, co-localization, and BiFC assays in N. benthamiana, the proteins were co-expressed at 1:1 mixture of the relevant Agrobacteria inoculums. In all BiFC assays, the pair of YN/YC fusions was co-expressed together with free mCherry to mark the cytoplasm and nucleus, mCherry-NLS to mark the nucleus only, or mCherry-fused test proteins for co-localization analysis. The inoculum was pressure infiltrated into N. benthamiana leaves at the abaxial side using 1 ml syringe without the needle. Due to low overall levels of NPR1-GFP in transgenic plants, a transient expression assay in Arabidopsis seedlings was used to monitor NPR1-GFP subcellular localization after SA treatment (FIG. 2B). To limit the imaging time in this transient assay (2 hours), a higher baseline SA concentration had to be used. Seeds of WT (Col-0) Arabidopsis were germinated on solid half-strength Murashige and Skoog (1/2 MS) medium and grown for 4 days. Agrobacterium carrying the indicated constructs was grown overnight in LB medium supplemented with appropriate antibiotics. The obtained culture was re-inoculated at 1:10 into virulence induction medium [50.78 mM MES, 0.5% Glucose, 1.734 mM NaH2PO4, 5% of 20X-AB mix (373.9 mM NH4C1, 24.34 mM MgSO4, 40.23 mM KCl, 1.36 mM CaCl2 and 0.18 mM FeSO4·7H2O), 200 μM acetosyringone] supplemented with 25 μg/ml rifampicin and grown for another 24 hr at 28° C. to OD600=0.8 (inoculum). Seedlings were vacuum-infiltrated with the inoculum, and at 48 hpi (hours post inoculation), treatments were performed by submerging the transformed seedlings in water or SA solution at indicated concentrations for 2 hr. Entire cotyledons were sampled for microscopy.
Confocal laser scanning microscopy. Unless otherwise indicated, all imaging data and micrographs for single protein imaging, co-localizations, BiFC and time-lapse were obtained from the transient expression in N. benthamiana using the relevant Agrobacteria strains. All imaging was done with confocal laser scanning fluorescence microscopy using Zeiss 880 airyscan inverted confocal microscope with a 40×/1.2 water correction objective. GFP (eGFP) was excited with a 488 nm argon laser and emission was collected with a 505-530 nm band pass filter. YFP was excited with an argon laser using a 514 nm beam splitter, and emission was detected with a 520-555 nm band pass filter. mCherry was excited with a 561 nm diode laser, and emission was detected with a 575-615 nm band pass filter. When eGFP/YFP were imaged together with mCherry, a spectral GASP detector was used to collect emission from eGFP/YFP. Propidium iodide (PI) was excited with 488 nm argon laser and emission was detected with a 590-620 nm band pass filter. Time-lapse imaging was carried out on live leaf tissue samples from N. benthamiana plants transiently expressing the protein of interest. Image acquisition was done in 5 min intervals for the duration of 2 hr by scanning 30 consecutive focal planes along the Z-axis covering the entire thickness of an epidermal cell. Z-projection was done to each time frame stack before composing a final time-lapse file. […]

PR1 promoter = PR1 promoter activity, dual luciferase assay; type: cell-based, Nicotiana benthamiana; settings: 2 mM SA for 24 hr
Excerpt: PR1 promoter activity and dual luciferase assay. For promoter transactivation assays, the PR1 promoter reporter (pPR1:DUAL-LUC) was transiently co-expressed in N. benthamiana together with free HA, or HA-fused WT NPR1 or npr1 mutants (effectors) followed by treatment with SA at 1 dpi. At 2 dpi (24 hr after SA treatment), leaf discs were collected, ground in liquid nitrogen, and lysed with the PLB buffer of the Dual-Luciferase Reporter Assay System (Promega, E1910). Lysate was spun down at 12,000 g for 1 min, and 10 μl was taken for measuring FLUC and RLUC activities according to manufacturer's instructions using a Victor3 plate reader (PerkinElmer). At 25° C., substrates for FLUC and RLUC were added using the automatic injector and after 3 s shaking and 3 s delay, the signals were captured for 3 s and recorded as counts per second. To obtain the PR1 promoter activity, the ratio of F-LUC and R-LUC activities was calculated for each effector and plotted relative to that of free HA.

CUL3 = assay: Co-IP of Myc-CUL3 with HA-fused NPR1 or variants; type: binding, Arabidopsis thaliana; settings: 1 mM SA for 5 hr
Protocol: as §1
Protein analysis and IP. Recombinant protein analysis was performed using transient expression in N. benthamiana, or stable over-expression in transgenic Arabidopsis, or expression in E. coli. Total protein extraction from plants was performed by homogenizing leaf tissue in the plant extraction buffer [50 mM Tris-HCl (pH 7.5), 150 mM NaCl, 5 mM EDTA, 0.2% Triton X-100, 0.2% Nonidet P-40] supplemented with 1 mM PMSF, 100 μM MG132, and EDTA-free protease inhibitor cocktail (Roche). For ubiquitinated protein analysis in plants, 100 μM of DUB (deubiquitinase) inhibitor (LifeSensors) and 10 mM NEM were added. Next, the lysates were cleared by centrifugation at 14,000 rpm for 15 min followed by filtering through a 0.2 μm filter. […] Pull-downs or IP experiments were done on total protein extracts by incubating protein samples in the lysis buffer overnight with indicated affinity tag or antibody conjugated to agarose or magnetic beads: GFP-trap agarose beads (Chromotek) for GFP fusions; RFP-trap agarose beads (Chromotek) for mCherry fusions; anti-HA magnetic beads (ThermoFisher) for HA tag fusions; anti-DYKDDDDK coupled magnetic agarose (ThermoFisher) for FLAG tag fusions; and glutathione magnetic agarose (ThermoFisher) for GST fusions. Unless otherwise indicated, after pull-down/IP, beads were washed 3 times and proteins were eluted by boiling in the 2×SDS sample buffer. […]

B1: rdr3: NPR1 with cysteine cluster of RDR3 mutated (C511/521/529A) (protein)
chain: MDTTIDGFADSYEISSTSFVATDNTDSSIVYLAAEQVLTGPDVSALQLLSNSFESVFDSPDDFYSDAKLVLSDGREVSFHRCVLSARSSFFKSALAAAKKEKDSNNTAAVKLELKEIAKDYEVGFDSVVTVLAYVYSSRVRPPPKGVSECADENCCHVACRPAVDFMLEVLYLAFIFKIPELITLYQRHLLDVVDKVVIEDTLVILKLANICGKACMKLLDRCKEIIVKSNVDMVSLEKSLPEELVKEIIDRRKELGLEVPKVKKHVSNVHKALDSDDIELVKLLLKEDHTNLDDACALHFAVAYCNVKTATDLLKLDLADVNHRNPRGYTVLHVAAMRKEPQLILSLLEKGASASEATLEGRTALMIAKQATMAVECNNIPEQCKHSLKGRLCVEILEQEDKREQIPRDVPPSFAVAADELKMTLLDLENRVALAQRLFPTEAQAAMEIAEMKGTCEFIVTSLEPDRLTGTKRTSPGVKIAPFRILEEHQSRLKALSKTVELGKRFFPRASAVLDQIMNAEDLTQLAAGEDDTAEKRLQKKQRYMEIQETLKKAFSEDNLELGNSSLTDSTSSTSKSTGGKRSNRKLSHRRR
modifications: A. thaliana npr1 rdr3 protein
protection against cell death induced by Psm ES4326/AvrRpt2 (SA-mediated survival phenotype) [1]: partially compromised the protection against cell death | SA-induced cytoplasmic body/condensate (SINC) formation ([2]; 5 mM SA for 2 hr): completely abolished the SA-induced condensation in both cytoplasm and nucleus | nuclear accumulation (nuclear-cytoplasmic partitioning) ([2]; absence of SA, compared to WT): increased nuclear accumulation | condensate formation in the absence of SA (constitutive) ([2]; no SA treatment / mock): no effect on protein state in untreated cells | transcriptional co-activation function (PR1 promoter transactivation) (PR1 promoter): reduced transcriptional co-activation function | CUL3 pull-down signal in co-IP (CUL3): little interaction
